The record followed here is paper doi:10.1101/2022.04.10.487811.

In the assay the target is HA H7 HK17 (A/Hong Kong/125/2017(H7N9)) hemagglutinin (influenza A virus A/Hong Kong/125/2017(H7N9)). The assay is described as follows: BLI. In general terms: BLI is a label-free optical method that tracks binding on a fibre tip over time.

For orientation: Kd means the equilibrium constant for the complex coming apart. A high value points to lower affinity. In turn, MEDI8852 Fab (wildtype) displayed a dissociation constant Kd of 0.21 nM.
